In publication PMC12866179, “Oxidized MIF is an Alzheimer’s disease drug target relaying external risk factors to tau pathology” (Cell Reports Medicine, 2025):

Target: recombinant human MIF-C80W (human)
Experiment: SEC-MALS; 100 uM MIF (WT or C80W) in 20 mM phosphate buffer, with or without 100 uM PAV-174; TSKgel G2000SWXL, 0.5 mL/min, 25 C; UV 280 nm and miniDawn Treos light scattering

recombinant human MIF-C80W (natural protein)
stoichiometry N: 3
